For one assay, the target named is T1, chimera 3 (m,m,m) (mouse; human, UniProt P09581 21-292).
T1 construct: range 21-292; not shown: Fc portion of an IgG molecule
The assay is described as follows: binding ELISA, coated chimera. How it is done:
(§1) Briefly, coat plates with 100 μL of 200 ng/mL human, mouse or chimera 1-7 proteins overnight.
(In general: ELISA stands for enzyme-linked immunosorbent assay.)

Another assay deals with T2, mouse CSF-1R (mouse, UniProt P09581 20-511, limits assumed).
T2 construct: also called murine form of the receptor
T2 sequence (looked up): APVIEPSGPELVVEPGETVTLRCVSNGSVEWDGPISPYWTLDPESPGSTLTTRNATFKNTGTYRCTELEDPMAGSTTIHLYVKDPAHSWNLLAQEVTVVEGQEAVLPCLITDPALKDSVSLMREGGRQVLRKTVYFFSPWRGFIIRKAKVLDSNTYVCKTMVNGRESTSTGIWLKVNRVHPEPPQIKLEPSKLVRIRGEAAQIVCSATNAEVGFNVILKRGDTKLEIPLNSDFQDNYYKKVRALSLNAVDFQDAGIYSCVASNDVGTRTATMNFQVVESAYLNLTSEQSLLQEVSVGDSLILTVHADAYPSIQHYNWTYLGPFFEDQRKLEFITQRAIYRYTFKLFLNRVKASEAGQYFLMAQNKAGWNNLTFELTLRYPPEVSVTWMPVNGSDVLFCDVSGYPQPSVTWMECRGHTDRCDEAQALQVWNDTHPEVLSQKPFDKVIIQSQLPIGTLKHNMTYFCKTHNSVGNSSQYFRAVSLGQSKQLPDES
Briefly: binding ELISA, coated receptor protein. As to the method: as §1

T1 sequence (P09581 other isoform, or with tags, fused parts or gaps mutant): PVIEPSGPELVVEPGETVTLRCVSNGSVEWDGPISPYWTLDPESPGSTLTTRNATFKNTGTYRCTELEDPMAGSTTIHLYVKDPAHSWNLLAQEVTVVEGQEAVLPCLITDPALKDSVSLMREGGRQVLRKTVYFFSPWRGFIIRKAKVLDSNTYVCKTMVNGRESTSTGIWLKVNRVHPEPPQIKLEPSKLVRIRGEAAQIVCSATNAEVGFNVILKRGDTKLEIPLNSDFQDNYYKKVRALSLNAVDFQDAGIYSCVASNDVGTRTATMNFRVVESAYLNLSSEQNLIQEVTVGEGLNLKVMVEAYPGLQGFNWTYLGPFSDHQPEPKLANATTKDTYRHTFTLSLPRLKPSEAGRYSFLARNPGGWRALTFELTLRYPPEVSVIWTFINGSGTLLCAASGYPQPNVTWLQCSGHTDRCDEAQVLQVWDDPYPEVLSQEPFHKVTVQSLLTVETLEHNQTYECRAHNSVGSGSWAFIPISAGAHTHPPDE

B1: Antibody 1 (antibody, human IgG1, kappa, V domains shown)
VH: QDQLVESGGGVVQPGRSLRLSCAASGFTFSSYGMHWVRQAPGEGLEWVAVIWYDGSNKYYADSVKGRFTISRDNSKNTLYLQMNSLRAEDTAVYYCARGDYEVDYGMDVWGQGTTVTVAS
VL: AIQLTQSPSSLSASVGDRVTITCRASQGISNALAWYQQKPGKAPKLLIYDASSLESGVPSRFSGSGSGTDFTLTISSLQPEDFATYYCQQFNSYPWTFGQGTKVEIKR
notes: also called anti-CSF-1R Antibody 1
Turning to B1, the binding result in the assay with chimera 3 (m,m,m) and with mouse CSF-1R was “no binding (tested: 100 nM)” throughout.
